In the supplement of paper PMC12764529:
± gives the half width of the 95% confidence interval.

Tests used:
[1] = folding stability dG unfold from trypsin proteolysis; higher = more stable
Summary of the method: (§1)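 Bayesian fitting of sequencing counts gave K50 for each design. Unfolding free energy followed by setting this against a sequence-predicted unfolded-state K50 and a shared folded-state K50, either per protease or with trypsin and chymotrypsin combined. The designs, under 80 residues and lacking cysteine, were digested in a PA-tagged cDNA display format at 11 threefold-diluted protease concentrations and without protease, and only those with AlphaFold2 dimer inter-PAE above 15 were kept.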

[2] = folding stability dG unfold from chymotrypsin proteolysis; higher = more stable
Summary of the method: as §1

[3] = folding stability dG unfold (combined trypsin and chymotrypsin); higher = more stable
Summary of the method: as §1

Sequence	folding stability dG unfold [1] [kcal/mol]	folding stability dG unfold [2] [kcal/mol]	folding stability dG unfold [3] [kcal/mol]
SAGGMKVYKISFPNATVTYEEETGKVTINPPDGSTKVIEISPDISIEEVAKKLAEELGFTEATITPEPSAGG [r13_852_JUSTAS]	1.59 ± 0.095	1.36 ± 0.057	1.48 ± 0.068
SAGGSAGGSKTLKIEIPVEEESEEEARKKIKEALKELGIKEITEEDIKIERKEDGTLRAEIKLSAGGSAGGS [r12_122_TrROS_Hall]	0.987 ± 0.084	0.343 ± 0.11	0.817 ± 0.17
SAGGSMPPETEVTVTVEEFEEDPSRRLRVTITTPDGTVVTTDLENPGELSPEEEARIAALAAALAASAGGSA [r2_17_JUSTAS]	0.486 ± 0.026	1.96 ± 0.027	1.58 ± 0.055
SAGGSAGGSKPLVIRVRLTYYDEKTGKKVKEVELTLTVSEEEAKKLAEELKKLYPNVEVEIFPSAGGSAGGS [r12_342_TrROS_Hall]	4.37 ± 0.53	4.67 ± 0.13	4.84 ± 0.39
SAGGMTITVTVPEVPPDRTVTVEVYKPGEKLGSYSGTLNQPKNVTYTFTVPPATITINYSDGKTYPIPLSAG [r5_646_JUSTAS]	2.22 ± 0.19	3.4 ± 0.038	3.01 ± 0.25
SAGMKEGEVEKVEVEVEITIEVYNENGEKVKTFKAKVKVEVVRNENGELYVKAEIEFEDGTKFEFVVKLSAG [r5_580_TrROS_Hall]	2.96 ± 0.35	3.71 ± 0.09	3.81 ± 0.54
SMPEPLVLRVRVRDPENPEPVLEFELVIPPDGGVLVLARHPDRVEVREMPLEEAIDLLLSLPFEIEEVEGSA [r9_470_TrMRF]	2.85 ± 0.068	3.32 ± 0.085	3.14 ± 0.14
SAGGAPLPLPPDVPVTLTFTEVTFSLNESGETGYTVSTTTVPVPVEPVPPVPLPVLVVWPDGSAVALLSAGG [r13_401_JUSTAS]	1.3 ± 0.067	2.23 ± 0.051	1.89 ± 0.059
SSGIAEIVAANPGVSLEELAKLIKEKLKAELPTDEPIEIKMTKSPDGYKITITIKDENNWHSDEYYVKPGSA [r9_805_JUSTAS]	2.95 ± 0.2	3.14 ± 0.16	3.07 ± 0.19
SAGGKPPNLKIKIEVIPIPNGYWIITFRIKVPPNEPLKIRFPDFGREIEFPPGDEVTIMILIPPDDLSAGGS [r16_56_TrROS]	3.64 ± 0.2	4.8 ± 0.2	4.62 ± 0.35
SAGGSAGGSAGGSKKIYLIKIEIEKKITYDKKTKELKIEEKIKIKIEPLSEEDLEKLLKSAGGSAGGSAGGS [r4_274_TrROS_Hall]	2.97 ± 0.25	3.83 ± 0.18	3.69 ± 0.46
SAGGSAGGSAGGAPTIRVELRHPNGERIELEFPADADVIFVPEDYEITRIEIVPADDPASAGGSAGGSAGGS [r10_571_TrMRF]	1.51 ± 0.062	1.837 ± 0.018	1.69 ± 0.052
SAGGIELTIPLPNGMLIKIKIESIHIQPVPVWRKKKDPDGKPKDWEPQPFTFSISIRFSIEIYDPDDLSAGG [r13_848_TrROS]	3.47 ± 0.2	5.07 ± 0.16	4.97 ± 0.35
SAGGSAGGGMMLTLSSQTTQTSYDPSGLSTTLSLTTNPLGGTTVVTTTTVPGTGEVSVTTTPSSSAGGSAGG [r6_977_JUSTAS]	1.32 ± 0.024	0.508 ± 0.065	1.04 ± 0.045
SAGGSAGGSITTVTGVYKTPDGNPTAATFEVANKPDGTVTYTVTVPGTGKTFSTDSLDLVTVDGSAGGSAGG [r6_255_JUSTAS]	0.296 ± 0.027	0.563 ± 0.072	0.485 ± 0.042
SKKITIEIELYRNPETKKLPLKLKAYNENGEPLGELEIEFTESPEEALEKALALAKELAESNDAEITFGLSA [r9_31_TrMRF]	1.38 ± 0.041	1.92 ± 0.036	1.76 ± 0.057
SAGGSAGGSHEIIIRVDSPEDAIEQAKSILRDHGIPEGFEPVPIEVLERDPNNGYYYVQIEVKSAGGSAGGS [r12_999_TrROS]	0.601 ± 0.026	-0.453 ± 0.077	0.178 ± 0.1
SAGGGAMHTVTITDEAGNVTTFTLPTDLDTLKEKIKELFPEKKYEIKKVTRVPGNPGLTTITVKVPKDSAGG [r13_832_JUSTAS]	1.28 ± 0.039	1.89 ± 0.064	1.68 ± 0.11
SAGGKIRIDVQYNKNEGYITIRIRFNGNTREIPIPSPKQSPEDVREEAEEIAKYLQEEYNIKEVEIWSAGGS [r16_249_TrROS]	2 ± 0.068	2.34 ± 0.11	2.36 ± 0.16
SAGGSAGGSAGGGMPSVTVTPVTLTVPTEVLVDGGPLLREREVRLTVITYPYTNTVVVDSAGGSAGGSAGGS [r10_533_JUSTAS]	-0.474 ± 0.2	0.494 ± 0.16	0.23 ± 0.099
SAGGFKIEYTGNYYTIELPGLKIMVNPNMGMMRIKLPGNGKKITIPVPMNNWEDMLDAVKEILKELGSAGGS [r8_447_TrROS]	3.17 ± 0.17	2.18 ± 0.099	2.56 ± 0.26

Sequence	folding stability dG unfold [1] [kcal/mol]	folding stability dG unfold [2] [kcal/mol]	folding stability dG unfold [3] [kcal/mol]
SAGGSAGGSAGMYRVEIEIEMSKEQLEALKKNKNLKPGQKIDLKVKIKIEPVKLDKNGKLSAGGSAGGSAGG [r17_194_TrROS_Hall]	1.57 ± 0.051	2.43 ± 0.036	2.32 ± 0.13
SAGGMVIKVTDAEEAIERVIELVKSLGPEAVIKEITVTNTGTVVKVEPGKKGTVSPDSTITVNIEKGSAGGS [r16_267_JUSTAS]	-0.0389 ± 0.066	0.938 ± 0.075	0.662 ± 0.14
SAGGSAGGSAGGMEEIRELLEKAKKEGLESITVTVNDPAEATEVRAYAEEKGIPVTINASAGGSAGGSAGGS [r10_307_JUSTAS]	0.415 ± 0.048	-1.01 ± 0.56	-0.0348 ± 0.16
SAGGSAGGSAGGMEIEFEKAKFEIEEIDPEKGKIKVKFPGLEKEFEIEFDKKGKIVKISGSAGGSAGGSAGG [r7_553_TrMRF]	0.228 ± 0.057	0.959 ± 0.036	0.612 ± 0.12
SAGGSAGGSAGGKKPKPIKVKVLKYYKNGKIEEKEYTFESPEDLEEFIKANPEVKVLEISSAGGSAGGSAGG [r11_802_TrMRF]	3.04 ± 0.34	4.76 ± 0.082	4.58 ± 0.17
SMVFVEIFYDPIKKKKYIKIVIFLPPNDPEKIKELAEKIKKEIEKFFEELGLKVDKIEVFVFTFPPDFPLSA [r9_117_TrMRF]	3.38 ± 0.23	4.99 ± 0.067	4.6 ± 0.22
SAGGMATITVTSDGVLKVTFVDPATGSPVKTIPLPLSEVEQLGAEKGSPLSLEEILKELGYPTEITLGSAGG [r13_836_JUSTAS]	1.52 ± 0.059	1.48 ± 0.008	1.51 ± 0.045
SAGMEFPANTTVELTLTLTFPVPLPGEGTGPVTLTYTLRLEVRPKPRIPLPDPALRELLERLGLSPDLLSAG [r5_624_TrMRF]	3.88 ± 0.39	4.88 ± 0.13	4.43 ± 0.4
SAGGSAGGSAGGMLKTKVTVDPTPDGVTRVTETTYDPSTGALVKTSTTIVVPGTGEVTAVSAGGSAGGSAGG [r7_804_JUSTAS]	-0.779 ± 0.18	1.04 ± 0.031	0.669 ± 0.062
SAGGSAGGSAGGPEVNIEVERYRLPNGGYLLVIRTSDGEEIVIEFDSPEEALKAAKEIAKSAGGSAGGSAGG [r11_955_TrMRF]	1.73 ± 0.035	2.04 ± 0.056	1.93 ± 0.077
SAGGFKLKIDDIEFHDDYLVIRLKIEVPVNDQTMKFELTLIIPVPPPPPPKPPVDPEEYRDPDGKWHSAGGS [r8_234_TrROS]	2.19 ± 0.11	2.9 ± 0.062	2.63 ± 0.24
SAGGSAGGSAGKRYTFFIPVPPDEMTPEDLVDWIEKIFPDFKGKEIKVEVMPDGYVRIKIEYSAGGSAGGSA [r18_65_TrROS]	3.08 ± 0.069	3.89 ± 0.044	3.56 ± 0.097
SAGSKVIMIPWEDAEKLIEDLPPGKNVTIHWMWPKGPYWTHTIEVKGDKIKIEPLPPNQFPGWRIMITKSAG [r5_85_TrROS]	1.86 ± 0.13	1.45 ± 0.17	1.65 ± 0.22
SAGGSAGGSMGLVVRREDGTLVLFRLGEDGLEEFTVPLEDWLTVPEEFFDAIPPEEVDEATPESAGGSAGGS [r12_793_TrMRF]	1.4 ± 0.15	1.9 ± 0.092	1.69 ± 0.12
SAGGNIKIEDIEIMKPMKDPDGNPDKPMYMVSIRIEHEYKYPDGPMKHKHEIMIMMPPNDPDEALDELSAGG [r13_149_TrROS]	0.897 ± 0.081	0.758 ± 0.041	0.877 ± 0.11
SADIKIDVTYRRSPGEGRYTMTVRVELPDGKKLAEIPITMPADDPGMSPRQMREWARPIVKKLAKEGLISAG [r14_120_TrROS]	0.537 ± 0.12	1.02 ± 0.1	0.889 ± 0.08
SAGGSAGGSAGTATLTDPNGVRIEVFPDGTVRATVYRPDPSTGEWKLAATFTFPLHPDAFSAGGSAGGSAGG [r11_497_TrMRF]	1.72 ± 0.027	2 ± 0.067	1.94 ± 0.066
SAGGSAGGSAGNWIIRIRWPGKSIMFVLPEGMNVDEIATNIQDEFNYPIDIEVIPPGQPISAGGSAGGSAGG [r11_805_TrROS]	2.15 ± 0.071	2.65 ± 0.062	2.5 ± 0.15
SAGGMKVEIIRKDGKKVTLEGMTLEELLALLPEGEEYVIKVEVTVVDEKTKKKETVELTFTVPVEDLSAGGS [r16_806_TrROS_Hall]	1.18 ± 0.047	2.47 ± 0.053	2.04 ± 0.075
SAGGSAGGMTITTTENPNSNLTTYDVTIGNTKVTVTVNPNNPGVIKTEGDNDVPVEVVINAVLSSAGGSAGG [r6_197_JUSTAS]	1.69 ± 0.059	0.456 ± 0.043	1.21 ± 0.056
SGMEQKVEVLRVGAPGEEAVTRFTFKFEDKEFTLEASARLPDGSLVLLDFHVYRDPEGTFRVDVVVYPGFSA [r9_255_TrMRF]	2.01 ± 0.069	3.27 ± 0.043	2.93 ± 0.1
